Data published in the supplement of paper PMC9170038.

System: MS2 coat protein
Test: apparent KD of MS2 coat protein; higher = weaker reporter binding
Settings: Eterna round: R107
Protocol: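 RNA-MaP round R107: designed RNA switches with theophylline, tryptophan, arginine or FMN aptamers are transcribed on-chip within common flanks. They are titrated with SNAP-549-labelled MS2 coat protein in RNA-MaP buffer (100 mM Tris pH 7.5, 80 mM KCl, 4 mM MgCl2), without ligand or with the indicated ligand. Median apparent KD per design.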

[1] = input ligand: theophylline 20 uM
[2] = input ligand: theophylline 2 mM
[3] = input ligand: tryptophan 2.4 mM

Sequence	apparent KD of MS2 coat protein (input ligand: arginine 13.2 mM) [nM]	apparent KD of MS2 coat protein (input ligand: none) [nM]	apparent KD of MS2 coat protein [1] [nM]	apparent KD of MS2 coat protein [2] [nM]	apparent KD of MS2 coat protein [3] [nM]
UCGGGAACAUGAGGAUCACCCAUGUCAGAAGGAGCGCUGAGAGAAGCAGGUAGGUCGCUGACGCAGGAGCUCUCUUCCUGUACGC [#22 Exclusion - Arginine A]	96.2	33.8	46.4	22.6	15.9
UUUAUUUAUUUAUUUAUUUAUUUAACAGAAGGAGCGUGGAUUAACACAGGUAGGUCGCUGACAUGAGGAUCACCCAUGUAUUAUU [SSAA #1]	106	28.4	48	41.6	35.8
UAUAUAAUAACAGAUACCAGCGUGUUAUAAAACAUGAGGAUCACCCAUGUAGUGAUCAAGCGCCCUUGGCAGCUGGUAUUAUAUA [7.A]	123		140		47.6
AAUUCCUCACAUGAGGAUCACCCAUGUGAAGGAGCGCCGAAUAAGGCAGGUAGGUCGCACAUGGAAACCGCUACGAAAGUAGCAA	13.1	20.5	64.8	20.5	21.3
AUCUCAUAGAGUGAUACCAGACUACAUGAGGAUCACCCAUGUUACAUUUAAAUAUCAUUUGUCCCUUGGCAGCACAUGAAGUACA [JR_Nu_ExcTheophyB_Sub018]	22.9		37.3		27.6
AUAACAUGAGGAUCACCCAUGUAAGCAGAUACCAGCUAGGAAACUAGCCCUUGGCAGCUGCAAGGUGAUCCUAAUGCAGCUGCAA [(M1)-(M2)-(T1)-(T2)-(M)'-(T)'_Design3]	61.9		241		158
GCAUCCUAGUCGGCCGCCACUGCAACAUGAGGAUCACCCAUGUCAGGCCUCAUGUGUCCUGGUAGCAGGACCGGGACUAGGAUGC [(T1)-(M1)-(M2)-(T)''-(M)'-(T)'-(T2)_Design4_2/18/17]	34		47.1	52	
UCGUUUGAGUCGGCCGCCACUGGUCUCAUGGUCAACAUGAGGAUCACCCAUGUAUCUUAGUUAAACAGGACCGGGACUCGAUCGA [#17 Exclusion Tryptophan B]	62.5	50.5	67.7	34.3	20.6
GACAUGAGGAUCACCCAUGUACCGCGAGAAGGAGCGCGGAUAAACGCAGGUAGGUCGCUCGUGGGCUUUUAUUCAAUCGAAAGCU [Zaesar]	26.8	50.5	106	165	48
UGUAUGUGAUCUGAUACCAGUCCAACUGGUAAAACACGAGGAUCACCCGUGUAAAAUUGGGACCCUUGGCAGCAGAUCGCAUACU	70	87.5	51.9	12.6	87.9
CGCAACCCACAUGAGGAUCACCCAUGUGAAGGAGCGGCGAAUAAGCCAGGUAGGUCGCGCAUGAAUAAAUCAUGUAGGAAGCUAA [XArg-A 8 V1]	9.8	10.8	13.2	12.7	9.79
AGAUGUAGCGGAAGGAGCGUCAUGAGGAUCACCCAUGGCUCCCGUUGUGGGAGUUCCUUAGGUCAGGUAGGUCGCCGUUACGUCA [Omei Arg B SS B v6]	79.7	359	187	254	137
GCCGCGGCCGCGAUACACAUGGGUGUGUAACGAGGACCGGUACGGCCGCCACUCGAGAUGGUGCACAUGAGGAUCACCCAUGUGC [Exclusion Tryp A GF15]	10.3	14.9	14.1	19.3	12.1
CAGGCUAGGACGGCCGCCACUGUGGCUACGGUACAUGAGGAUCACCCAUGUUUGUGGUUGAUCUACAGGACCGGGUCCUGACACG [Letisoonri]	22.2		134	278	
GGUUACUCUACGGCCGCCACUGAUUAAUUAUAAACCUGUACAUAAACAUGAGGAUCACCCAUGUACAGGACCGGGUAGUGUAACC [Tryptophan B 9]	30.5		46.9	39.1	
GGCUAACAUGAGGAUCACCCAUGUAUUGAUACCAGUAUUUGAAAAUACCCUUGGCAGCAAAUGAAGAGCGUAGCAGGGUCGAUUA [theeternabot_sameState_MS2_Theo_A_7]	10		17		12.6
AAGGCACGAGACAUGAGGAUCACCCAUGUUCGAGGACCGGUACGGCCGCCACUCGGUGGACUCAUGGUAAAGCCGGUGAGCCAAA [AK 1.1 SS Trypt (A)]	18		25.2	22.5	
UUGUGGUAGGCGCAUACUCAUUUAUACAAGCGAGGACCGGUACGGCCGCCACUCGGAAUAAAACAUGAGGAUCACCCAUGUACCG [theeternabot_exclusion_MS2_Trp_A_50]	12.9		17.1	14.6	
AUAAUAAUACAUGAGGAUCACCCAUGUAUGCGAGGACCGGUACGGCCGCCACUCGACCUCAUGCAUACAUGAGGAUCACCCAUGU [Same State Tryptophan A 4]	18.4		55.8	67.2	

Sequence	apparent KD of MS2 coat protein (input ligand: arginine 13.2 mM) [nM]	apparent KD of MS2 coat protein (input ligand: none) [nM]	apparent KD of MS2 coat protein [1] [nM]	apparent KD of MS2 coat protein [2] [nM]	apparent KD of MS2 coat protein [3] [nM]
AAAUAAAUCACAUGAGGAUCACCCAUGGAUACCAGGCCUGGAAACAGCCCUUGGCAGCCACAUGAGGAUCACCCAUGUGCUAAUA [MAT - Exclusion Theophlline A - Mod of Eli - D1]	89.8		194		152
AAAAUCCUAUCUGAGGAUCACCCAGGUGAAGGAGCGCCCGAAAGGGCAGGUAGGUCGCACCUGAGGAUCACCCUGGUAAACCUAA [ArgEX 21 #DoubleMS2 #OpenEnded]	68.8	76.7	76.3	90.6	65.4
AUCGUACCUGAUGAUACCAGCAAUUGCUCGUAACAUGAGGAUCACCCAUGUGACCAGUGAUGCCCUUGGCAGCAUGGUCGGUGCA [Same State - Theophylline B (Freestyle 21)]	59.5		190		150
ACCUGUACGAAAAGUGCAGGACACGGAAUACGAGGACCGGUACGGCCGCCACUCGGAUAAAACCUGAGGAUCACCCUGGUCCGUG [TrypAS 14 #AlternativeMS2 #Zipper #StaticStem]	27.7	24.6	43.5	34.6	22.6
UGACAUUGCUCAGAUACCAGACAGGAGGAUCACUCCUGUGCCAACAAGUACAAAAUAAAUGUCCCUUGGCAGCUGAGCAAUGUCU [TheoBX 25 #MS2Left #AlternativeMS2 #Theo22]	32	71.1	223	459	49
AAUGAGUGGUGGUCAAACAUGGGUGAUCAACGAGGACCGGUACGGCCGCCACUCGAUAACAUGAGGAUCACCCAUGUAAUAAUAA [|T'-M'-Trp-Ms2|_Design9]	55.5		492	683	
AGUGUUAUAACUGAUACCAGACUUGCGCUUAAACAUGAGGAUCACCCAUGUAAAAUGGUUGUCCCUUGGCAGCAGAAAAUACACA [JR_SSTheophyB_Sub006]	53.2		98		98.4
GCGGGACUUUCGGCCGCCACUGAGAGAGUCGUGUGAACAUGAGGAUCACCCAUGUAAUAUAUAUACAGGACCGGGAGGGUUGCGC [4.Q]	5.64	13.4	17.2	14.7	12.8
CUUGGCUGUGCGGCCGCCACUGACUCAUCCUGCAUUACAUGAGGAUCACCCAUGUUGCGGCCUCCCAGGACCGGGCAUAGCCUGC [Veered]	102		397	673	
UCGAAUGCGGCGGCCGCCACUCGCGGAUAACGAUAGCUUAACAUGAGGAUCACCCAUGUGUCAUGGAGGACCGGGCCCAUACCGU [azamullin]	19.7		36.1	26.6	
AGGGAACAUGAGGAUCACCCAUGUGCCGAUACCAGUGAUUUUCAGCACCCUUGGCAGCGGAACCUUUGUUAUAUUAUUCUUAGGG [theeternabot_sameState_MS2_Theo_A_25]	32.5		42.4		41.2
UGGAUAAGGGUAAAUAGGAUAAGUACAGAAGGAGCGCGAAUAAACGCAGGUAGGUCGCUGGACAUGAGGAUCACCCAUGUAAAUG [Same State Arginine A GF 22]	45.9	48.8	77.1	57.6	50
UCGUCAGGCGCGGCCGCCACUGCGGUGAUGUGACAUGAGGAUCACCCAUGUUGUCAUGUGGCACAUAGGACCGGGUGCCUGGCGA [Exclusion - Tryptophan B Attempt #5 (HarryS)]	8.16	56	44.5	114	17.6
AGCACUGUGACGGCCGCCACUAUAUUAGGGUGGUAGGGUUCAUAAAUACAUGAGGAUCACCCAUGUAGGACCGGGUCUCAGUGCA [Omei Trp Exc B A v1]	11.6	12.1	15.9	10	21.2
AUUCAUGGAAACAUGACAUACAUUACCGGUCGAGGACCGGUACGGCCGCCACUCGGUUGGUGGCACAUGAGGAUCACCCAUGUUA [SS Tryp A #11]	25.2		44.2	30	
CUGUACAUCUCGGCCGCCACUGCUGACAUGGGAGUCACCCAUGUCCACAUGAGGAUCACCCAUGUCAGGACCGGGAGGUGUGCAG [SSTryp B #25]	87.4		272	287	
AAUCGUAAGGCGGCCGCCACUACACAUGAGGAUCACCCAUGUCUCGCAGGCUUGCGUUGGGAUAGUAGGACCGGGCCAGUAAUAA [Exclusion - Tryptophan B (Freestyle 14)]	18.5		28.8	26.6	
GGCGGACUUAUAGAUACCAGCACAUGAGGAUCACCCAUGUUUGGUCGCACCUCAGUCCUGUGCCCUUGGCAGCUAUGAUAGAUUU [Leaatge]	16.9		33.4		16.1
